Laboratory results: US8829044B2, “Stabilized vitamin C derivatives having a peptide molecule, preparation method thereof, and composition containing the same” (Peotron Co. Ltd., priority 2006, dated 2014)
Peptide text beside a SMILES is read from it. * marks the point of attachment. X1 = O=C(CCC(=O)*)O[C@@H](CO)[C@H]1OC(=O)C(OP(=O)(O)O)=C1O; X2 = O=C(CCC(=O)*)O[C@@H](CO)[C@H]1OC(=O)C(O)=C1O

Experiment: physchem
Experimental: Stability of each substance was evaluated, while being maintained at 25° C. and 50° C. for 30 days, by observing the change of UV (254 nm) absorbance.

[1] = buffer, Remaining test substance (%)

O=C1O[C@H]([C@@H](O)CO)C(O)=C1O [Vitamin C, ascorbic acid]
Remaining test substance (%) (buffer, 0 day, 10 μg/mL): 100%
Remaining test substance (%) (buffer, 2 day, 10 μg/mL): 0%
Remaining test substance (%) (buffer, 3 day, 10 μg/mL): 0%
Remaining test substance (%) (buffer, 5 day, 10 μg/mL): 0%
Remaining test substance (%) (buffer, 10 day, 10 μg/mL): 0%
Remaining test substance (%) (buffer, 20 day, 10 μg/mL): 0%
Remaining test substance (%) (buffer, 30 day, 10 μg/mL): 0%

C[C@@H](O)[C@H](NC(=O)[C@H](CCCCN)NC(=O)CCC(=O)O[C@@H](CO)[C@H]1OC(=O)C(OP(=O)(O)O)=C1O)C(=O)N[C@H](C(=O)N[C@@H](CCCCN)C(=O)N[C@@H](CO)C(=O)O)[C@@H](C)O [Ic-1, 2-phospho-5-(succinyl-lysine-threonine-threonine-lysine-serine) ascorbic acid] (X1-KTTKS-OH)
remaining at 24 h, 10 μg/mL [1]: 100%
remaining at 48 h, 10 μg/mL [1]: 100%
remaining at 72 h, 10 μg/mL [1]: 100%
remaining at 120 h, 10 μg/mL [1]: 100%
remaining at 240 h, 10 μg/mL [1]: 100%

C[C@@H](O)[C@H](NC(=O)[C@H](CCCCN)NC(=O)CCC(=O)O[C@@H](CO)[C@H]1OC(=O)C(O)=C1O)C(=O)N[C@H](C(=O)N[C@@H](CCCCN)C(=O)N[C@@H](CO)C(=O)O)[C@@H](C)O [succinoyl ascorbyl pentapeptide] (X2-KTTKS-OH)
remaining at 24 h, 10 μg/mL (buffer, Remaining test substance (%), day 1, 25° C., 10 μg/mL in purified water): 60%
remaining at 24 h, 10 μg/mL (buffer, Remaining test substance (%), day 1, 50° C., 10 μg/mL in purified water): 50%
remaining at 48 h, 10 μg/mL (buffer, Remaining test substance (%), day 2, 25° C., 10 μg/mL in purified water): 20%
remaining at 48 h, 10 μg/mL (buffer, Remaining test substance (%), day 2, 50° C., 10 μg/mL in purified water): 10%
remaining at 72 h, 10 μg/mL (buffer, Remaining test substance (%), day 3, 25° C., 10 μg/mL in purified water): 10%
remaining at 72 h, 10 μg/mL (buffer, Remaining test substance (%), day 3, 50° C., 10 μg/mL in purified water): 0%
remaining at 120 h, 10 μg/mL (buffer, Remaining test substance (%), day 5, 50° C., 10 μg/mL in purified water): 0%
remaining at 240 h, 10 μg/mL (buffer, Remaining test substance (%), day 10, 50° C., 10 μg/mL in purified water): 0%
remaining at 480 h, 10 μg/mL (buffer, Remaining test substance (%), day 20, 50° C., 10 μg/mL in purified water): 0%
remaining at 720 h, 10 μg/mL (buffer, Remaining test substance (%), day 30, 50° C., 10 μg/mL in purified water): 0%
Remaining test substance (%) (day 0, 25° C., 10 μg/mL in purified water): 100%
Remaining test substance (%) (day 0, 50° C., 10 μg/mL in purified water): 100%
Remaining test substance (%) (day 5, 25° C., 10 μg/mL in purified water): 0%
Remaining test substance (%) (day 10, 25° C., 10 μg/mL in purified water): 0%
Remaining test substance (%) (day 20, 25° C., 10 μg/mL in purified water): 0%
Remaining test substance (%) (day 30, 25° C., 10 μg/mL in purified water): 0%
